Laboratory results from patent publication US7144576.

Molecular target: bovine transducin (UniProt P04695)
Sequence (P04695 2-350): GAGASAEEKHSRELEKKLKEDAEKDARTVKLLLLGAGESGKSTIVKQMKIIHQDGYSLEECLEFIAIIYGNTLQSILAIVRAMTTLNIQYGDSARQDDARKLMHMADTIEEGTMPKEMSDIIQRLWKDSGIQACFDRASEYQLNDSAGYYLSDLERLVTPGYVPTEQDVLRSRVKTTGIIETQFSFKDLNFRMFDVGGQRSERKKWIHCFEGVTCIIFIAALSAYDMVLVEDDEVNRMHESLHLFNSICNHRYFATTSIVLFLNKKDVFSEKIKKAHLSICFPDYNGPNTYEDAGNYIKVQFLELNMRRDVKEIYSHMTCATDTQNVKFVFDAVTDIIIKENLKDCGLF

“recombinant S1 protein of native sequence from pPTXS1/1” was tested, and the “ADP-ribosyltransferase activity (autoradiogram of SDS-PAGE, [32P]NAD)” value was “The radioactive band at 39 Kd is the transducin subunit which has been ribosylated”.
